Results published in the RNAGym collection of RNA variant scans (doi:10.7554/elife.80360).

B1: Twister Ribozyme (parent)
chain: AACACUGCCAAUGCCGGUCCCAAGCCCGGAUAAAAGUGGAGGGGGCGG

Variants of: B1
Assay: self-cleavage, relative activity (ratio to wild type); higher = more cleavage; co-transcriptional

Variant | self-cleavage
U6C C27U | 0.275
U6C C27G | 0.0742
U6C G41C | 0.13
U6C G41U | 0.113
U6C G41A | 0.117
U6C G29C | 0.173
U6G G47C | 0.179
U6G G47A | 0.179
G7A A23G | 0.0819
U6G A33C | 0.367
U6G G45A | 0.141
G7A C25U | 1.09
U6C U12A | 0.663
U6C U12C | 0.613
U6C U12G | 0.465
G7A G13U | 0.0584
G7A G13C | 0.0492
G7A G13A | 0.0834
U6G G24U | 0.145
U6G G24C | 0.356
U6C G36C | 0.112
G7A | 0.615
U6C G42A | 0.0608
G7A C26A | 0.0788

Variant | self-cleavage
U6C G48C | 0.829
U6C G48U | 0.607
G7A G24C | 0.0973
G7A G24A | 0.0655
U6C C20G | 0.0668
U6C C21G | 0.109
U6C C21A | 0.0427
U6G G42A | 0.0807
U6G A23C | 0.0334
U6G A23G | 0.0873
U6C G44U | 0.502
U6G C27G | 0.0245
U6G C27A | 0.0375
U6G C27U | 0.186
U6G G13U | 0.0456
U6G G13C | 0.078
U6G G13A | 0.086
U6C C9A | 0.0857
U6C C19A | 0.104
U6G G44A | 0.229
U6G G44C | 0.234
G7A G16C | 0.084
G7A G16U | 0.161
G7A G16A | 0.226

Variant | self-cleavage
U6G C21G | 0.116
U6G C9A | 0.279
G7A C15A | 0.111
G7A C15U | 0.377
U6G U37G | 0.196
U6G U37A | 0.112
U6G U37C | 0.159
U6C G38C | 0.249
U6C G38A | 0.423
U6C A34G | 0.788
U6C A34U | 0.333
U6C A35G | 0.832
U6C A35U | 0.619
U6G C25G | 0.0804
U6G C25U | 0.252
U6G C15A | 0.301
U6G C15U | 0.569
G7A A35C | 0.493
U6G G38A | 0.315
U6G G38C | 0.168
U6G G17U | 0.0541
U6G G17A | 0.075
U6G G17C | 0.0484
U6G U18G | 0.0678

Variant | self-cleavage
U6G A35G | 0.281
U6C G45C | 0.206
U6C G45U | 0.495
U6C G45A | 0.6
U6C U31C | 0.712
U6C U31G | 0.422
U6C U31A | 0.581
U6C C25A | 0.108
U6C C26U | 0.0774
U6G G39A | 0.12
U6G G7A | 0.501
U6G G7U | 0.626
U6G G16U | 0.296
U6G G16C | 0.156
U6C G17U | 0.072
G7A C46U | 0.579
G7A C46G | 0.414
G7A A40G | 0.157
U6G C14A | 0.313
U6G C14G | 0.0983
U6G A34U | 0.493
U6G A32C | 0.419
U6G A32G | 0.337
G7A C20A | 0.0724

Variant | self-cleavage
G7A C20G | 0.0749
G7A A32C | 0.38
G7A A32G | 0.323
G7A A32U | 0.507
U6C C14U | 0.473
U6C C14A | 0.504
G7A C8U | 0.0616
G7A C8G | 0.153
G7A C8A | 0.0866
U6G A11G | 0.52
U6G A11C | 0.173
U6G A10G | 0.644
U6G A10C | 0.136
U6C G24U | 0.0929
G7A C19G | 0.0847
G7A C19U | 0.122
U6C G7U | 0.0403
U6G U31G | 0.429
U6G A22C | 0.485
U6G A22G | 0.106
U6C C15G | 0.1
G7A C14A | 0.371
U6C C46U | 0.625
U6C C46G | 0.589

Variant | self-cleavage
U6C U37G | 0.181
U6C U18A | 0.0773
U6G A40C | 0.0854
U6G A40U | 0.181
G7A C27G | 0.0632
G7A C27U | 0.11
U6G G28A | 0.138
U6G G28U | 0.0702
U6G G28C | 0.16
U6G G48U | 0.308
U6G C8G | 0.2
U6G C8U | 0.16
G7A C9A | 0.0651
G7A C9G | 0.0915
G7A G17C | 0.0766
G7A A33U | 0.269
U6G G43C | 0.13
U6G G43A | 0.144
U6C A40U | 0.119
U6C A40C | 0.11
U6G G29A | 0.19
U6G G29C | 0.139
U6C G28C | 0.215
U6C G28U | 0.295

Variant | self-cleavage
U6C G28A | 0.319
U6G A30C | 0.246
G7A A11U | 0.573
G7A A11G | 0.48
U6G G36A | 0.0942
U6C G16U | 0.371
G7A C21G | 0.0478
U6G C19U | 0.264
U6G C19A | 0.0816
U6G C19G | 0
U6C C8G | 0.0656
U6C C8A | 0.047
U6G C46G | 0.406
U6G C46A | 0.411
U6G C46U | 0.632
G7A A34G | 0.111
G7A A34C | 0.118
G7A A30C | 0.108
G7A A30U | 0.425
U6G G41U | 0.129
U6G G41A | 0.156
U6G C26U | 0.0975
U6G C26A | 0.0837
